Entries after “also recorded” stand apart in the source; their conditions may differ.
T1: human TREM2 (Homo sapiens, UniProt Q9NZC2)
T1 construct: HEK293 Flp-In cells either expressing human full-length TREM2 or empty vector; expressed in transfected cells
T1 sequence (Q9NZC2 19-230): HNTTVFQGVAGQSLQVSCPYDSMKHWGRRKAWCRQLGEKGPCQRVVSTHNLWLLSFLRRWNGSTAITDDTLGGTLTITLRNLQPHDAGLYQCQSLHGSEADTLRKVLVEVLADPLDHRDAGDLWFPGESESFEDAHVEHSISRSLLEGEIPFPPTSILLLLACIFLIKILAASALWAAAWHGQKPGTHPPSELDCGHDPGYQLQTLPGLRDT


How the values were obtained:
Assay type in all cases: cell-based
[1] = test system: human TREM2; assay: MALDI-TOF mass spectrometry analysis of TREM2 ectodomain cleavage (C-terminal fragment) in HEK293 cells; details: C-terminally FLAG-tagged TREM2 in HEK293 cells; FIG. 1B
Description: HEK293 Flp-In cells stably expressing WT and H157Y TREM2 were harvested in PBS. Cell pellets were frozen at −20° C. until use. Cells were lysed in lysis buffer (4% DDM, 0.1% N-octylglucoside, 10 mM Tris-HCl, pH 8.0, 5 mM EDTA, and 140 mM NaCl) containing protease inhibitor mix (Sigma-Aldrich) for 20 min on ice. Following a clarifying spin at 13,000 g for 20 min, supernatants were subjected to a second clarifying spin by centrifugation at 100,000 g for 1 h, and incubated with anti-FLAG M2-agarose (Sigma-Aldrich) overnight by rotation at 4° C. Beads were washed four times with IP/MS buffer (0.1% N-octylglucoside, 10 mM Tris-HCl, pH 8.0, 5 mM EDTA, and 140 mM NaCl) and two times with water. Beads were stored at −20° C. until IP/MS analysis.
IP/MS analysis was performed using Voyager DE STR (Applied Biosystems) as described previously). Immunoprecipitated peptides were eluted with TFA/CH3CN/water (1:20:20) saturated with α-cyano-4-hydroxy cinnamic acid. The dissolved samples were dried on a stainless plate and subjected to MALDI-TOF MS analysis.

[2] = biological target: T1, human TREM2; assay: sTREM2 ELISA of conditioned media from HEK293 Flp-In cells stably overexpressing wt TREM2 (ectodomain shedding); details: antibody 50 μg/mL, 24 hrs; normalized to immature TREM2; FIG. 7B
Description: (§1) 1*10^6-1.5*10^6 cells were seeded in the 6-well format. 24 hours later fresh medium was added to the cells. Antibody clones as generated by Dr. Feederle (Helmholtz Center Munich, Core Facility Monoclonal Antibody Development) were added simultaneously, i.e. for overnight treatment (about 24 hrs), at a final concentration of 50 μg/mL. On the next day, conditioned media and cells were collected and processed as described under “Preparation of conditioned media, cell lysates, and immunoblotting”.
(§2) ADAM10 inhibitor G1254023X (5 μM final concentration) and a control monoclonal antibody, which is specific for the C terminus of human TREM2, were used as positive and negative controls, respectively.
For quantitation of levels of sTREM2 in cell culture supernatants, an ELISA for human sTREM2 was established using the Meso Scale Discovery SECTOR Imager 2400. Streptavidin-coated 96-well plates were blocked overnight at 4° C. in 0.5% bovine serum albumin (BSA) and 0.05% Tween 20 in PBS (pH 7.4) (blocking buffer). For detection of human sTREM2, plates were shaken for 1 hour at room temperature with biotinylated polyclonal goat anti-human TREM2 capture antibody (0.25 mg/ml; R&D Systems) diluted in blocking buffer. Plates were washed subsequently four times with 0.05% Tween 20 in PBS (washing buffer) and incubated for 2 hours at room temperature with samples diluted 1:4 in 0.25% BSA and 0.05% Tween 20 in PBS (pH 7.4) (assay buffer) supplemented with protease inhibitors (Sigma). Recombinant human TREM2 protein (Holzel Diagnostika) was diluted in assay buffer in a two-fold serial dilution and used for the standard curve (concentration range, 4000 to […]). Plates were washed three times for 5 min with washing buffer before incubation for 1 hour at room temperature with mouse monoclonal anti-TREM2 antibody (1 mg/ml; Santa Cruz Biotechnology; B-3) diluted in blocking buffer. After three additional washing steps, plates were incubated with a SULFO-TAG-labeled anti-mouse secondary antibody (1:1000; Meso Scale Discovery) and incubated for 1 hour in the dark. Last, plates were washed three times with washing buffer followed by two washing steps in PBS and developed by adding Meso Scale Discovery Read buffer. The light emission at 620 nm after electrochemical stimulation was measured using the Meso Scale Discovery SECTOR Imager 2400 reader. To quantify the levels of sTREM2 secreted from HEK293 Flp-In cells, conditioned media from biological replicates were analyzed in duplicates. The sTREM2 standard curves were generated using the MasterPlex ReaderFit software (MiraiBio Group, Hitachi Solutions America) through a five-parameter logistic fit. Levels of sTREM2 were subsequently normalized to levels of immature TREM2 as quantified from Western Blots.

[3] = biological target: T1, human TREM2; assay: Immunoblotting of mature TREM2 in membrane fractions of HEK cells stably overexpressing wt TREM2; details: antibody 50 μg/mL, 24 hrs; normalized to immature TREM2; FIG. 7C
Description: HEK293 Flp-In cells stably overexpressing TREM2 or TREM2-DAP12 cDNA constructs were seeded at a density of 1.5×10^5/cm^2 and medium changed 48 h post seeding. Conditioned medium was collected after 18-20 h, immediately cooled down on ice, centrifuged at 13,000 rpm for 20 min at 4° C. and supernatants frozen at −20° C. until analysis. Supernatants were directly subjected to standard 15% SDS-PAGE. To prepare membrane fractions, cells were washed twice with ice-cold PBS, resuspended in ice-cold hypotonic buffer (0.01 M Tris, pH 7; 1 mM EDTA; 1 mM EGTA), freshly supplemented with protease inhibitor (Sigma) and incubated on ice for 30 min. After snap freezing in liquid
nitrogen and thawing, the disrupted cells were centrifuged at 13,000 rpm for 45 min at 4° C.
The resulting pellet was resuspended in STE lysis buffer (150 mM NaCl, 50 mM Tris-HCl,
pH 7.6, 2 mM EDTA, 1% Triton-X 100), incubated for 20 min on ice and clarified by centrifugation at 13,000 rpm for 30 min at 4° C. Protein concentrations were measured using the BCA method, equal amounts of protein were mixed with Laemmli sample buffer, supplemented with beta mercaptoethanol, separated by SDS-PAGE and transferred onto polyvinylidene difluoride membranes (Hybond P; Amersham Biosciences, Aylesbury, UK). Bound antibodies were visualized by corresponding HRP-conjugated secondary antibodies
using enhanced chemiluminescence technique (Pierce). Quantification of immunoblots was performed on a LAS-4000 image reader and analyzed using the Multi-Gauge V3.0 software (both Fujifilm Life Science).
as §1, §2

Molecule	TREM2 C-terminal fragment cleavage peak in MALDI-TOF mass spectra upon ADAM inhibition [1]	sTREM2 levels (ELISA), result in words [2]	levels of mature TREM2 in the membrane fraction (quantified immunoblots), result in words [3]
CNC(=O)[C@H](Cc1c[nH]c2ccccc12)NC(=O)[C@@H](CC(=O)NO)CC(C)C [GM]	no identified peak; also recorded: did not show any peak		
clone 7A12: rat monoclonal antibody against TREM2 cleavage site peptide; heavy chain variable SEQ ID NO: 25, light chain variable SEQ ID NO: 35 (antibody, V domains shown, Clone 7A12 variable region of the heavy chain; Clone 7A12 variable region of the light chain) VH: EVKLLESGGGLVQPGGSMRLSCAASGFTFTDFYMNWIRQPAGKAPEWLGLIRNKANGYTTQYNPSVKGRFTISRDNTQNMLYLQMNTLRGEDTATYYCARIGINNGGSLDYWGQGVMVTVSS VL: DILINQSPASLTVSAGEKVTMSCKSSQSLLYSEKNQDYLAWYQQKPGQSPKLLMYGASYRHTGVPDRFTGSGSGTDFTLTISSVQAEDLADYYCEQTYSYPYTFGAGTKLELK		slight trend toward reduced sTREM2 levels	increased levels of TREM2 in the membrane fraction
clone 10C3: rat monoclonal antibody against TREM2 cleavage site peptide; heavy chain variable SEQ ID NO: 28, light chain variable SEQ ID NO: 38 (antibody, V domains shown, Clone 10C3 variable region of the heavy chain; Clone 10C3 variable region of the light chain) VH: EVKLLESGGGLVQPGGSMRLSCAASGFTFTDFYMNWIRQPAGETPEWLGLIRNKTKGYTTEYNPSVKGRFTISRDNTQNMLYLQMNSLRPEDTATYYCARIGTNNGGSLDYWGQGVMVTVSS VL: DILIIQSPASLTVSAGARVTMSCKSSQSLLYSENNQDYLAWYQQKPGQFPKLLIYGASNRHTGVPDRFTGSGSGTDFTLTISSVQAEDLADYYCEQTYSYPYTFGAGTKLELK		slight trend toward reduced sTREM2 levels	increased levels of TREM2 in the membrane fraction
clone 15C5: rat monoclonal antibody against TREM2 cleavage site peptide; heavy chain variable SEQ ID NO: 30, light chain variable SEQ ID NO: 40 (antibody, V domains shown, Clone 15C5 variable region of the heavy chain; Clone 15C5 variable region of the light chain) VH: EVKLLESGGGLVQPGGSMRLSCAASGFTFTDFYMNWIRQPAGKAPEWLGLIRNKAYGYTTEYNPSVKGRFTISRDNTQDMLYLQMNTLRAEDTATYYCARIGINYGGSLDYWGQGVMVTVSS VL: DILINQSPASLTVSAGEKVTVSCKSSQSLLYSESNQDYLAWYQQKPGQFPKLLIYGASYRHTGVPDRFTGSGSGTDFTLTISSVQAEDLAHYYCEQTYSYPYTFGAGTKLELK		slight trend toward reduced sTREM2 levels	
clone 8A11: rat monoclonal antibody against TREM2 cleavage site peptide; heavy chain variable SEQ ID NO: 26, light chain variable SEQ ID NO: 36 (antibody, V domains shown, Clone 8A11 variable region of the heavy chain; Clone 8A11 variable region of the light chain) VH: EVKLLESGGGLVQPGGSMRLSCAASGFTFTDFYMNWIRQPAGKAPEWLGLIRNKTKGYTTEYNTSVKGRFTISRDNTQNMLYLQMNSLRPEDTATYYCARIGVNNGGSLDYWGQGVMVTVSS VL: DILIIQSPASLTVSAGARVTMSCKSSQSLLYSENNQDYLAWYQQKPGQFPKLLIYGASNRHTGVPDRFTGSGSGTDFTLTISSVQAEDLADYYCEQTYSYPYTFGAGTKLELK			increased levels of TREM2 in the membrane fraction
clone 21A3: rat monoclonal antibody against TREM2 cleavage site peptide; heavy chain variable SEQ ID NO: 27, light chain variable SEQ ID NO: 37 (antibody, V domains shown, Clone 21A3 variable region of the heavy chain; Clone 21A3 variable region of the light chain) VH: EVKLLESGGGLVQPGGSMRLSCAASGFTFTDFYMNWIRQPAGKAPEWLGLIRNKANGYTTQYNPSVKGRFTISRDNTQNMLYLQMNTLRGEDTATYYCARIGINNGGSLDYWGQGVMVTVSS VL: DILINQSPASLTVSAGEKVTMSCKSSQSLLYSEKNQDYLAWYQQKPGQSPKLLMYGASYRHTGVPDRFTGSGSGTDFTLTISSVQAEDLADYYCEQTYSYPYTFGAGTKLELK		slight trend toward reduced sTREM2 levels	
clone 18F9: rat monoclonal antibody against TREM2 cleavage site peptide; heavy chain variable SEQ ID NO: 29, light chain variable SEQ ID NO: 39 (antibody, V domains shown, Clone 18F9 variable region of the heavy chain; Clone 18F9 variable chain of the light region) VH: EVKLLESGGGLVQPGGSMRLSCVVSGFTFTDFYMNWIRQAAGKAPEWLGLIRNKVNGYRTEYNPSVKGRFTISRDNIQNMLYLQMNTLRAEDTATYYCARIGINNGGSLDYWGQGVMVTVSS VL: DILINQSPASLTVSAGEKVTMSCKSSQSLLYSENNQDYLAWYQQKPGQFPKLLIYGASNRHTGVPDRFTGSGSGTDFTLTISSVQAEDLADYYCEQTYSYPYTFGAGTKLELK		slight trend toward reduced sTREM2 levels	

Source: patent US10941200B2, “TREM2 cleavage modulators and uses thereof” (Deutsches Zentrum Für Neurodegenerative Erkrankungen EV, priority 2016, dated 2021)
